Our source for the fold higher attachment compared to RGD-targeted nanospheres (after 5 min) and fold higher attachment compared to RGD-targeted nanospheres (after 20 min) values is US20190307687A1.

Square brackets hold non-standard residues; d marks the D form.

This experiment addresses αvβ3 integrin on TNF-α-treated bovine aortic endothelial cells (BAEC) (bovine) (UniProt P80746). Kind of experiment: attachment under flow in a microfluidic device coated with TNF-α-treated BAEC cells; reference RGD-targeted nanospheres.

B1: RGD-NC nanoparticle (integrin-targeted nanochain of four iron oxide nanospheres carrying c(RGDfC) peptides on PEG) (peptide)
peptide: cyclo(RGD[dF]C)
modifications: not fully specified (residue 5); printed as cyclo (Arg-Gly-Asp-D-Phe-Cys); also: nanochain also tagged with VivoTag 680
Regarding B1, the fold higher attachment compared to RGD-targeted nanospheres (after 5 min) was determined as 9.5 fold and the fold higher attachment compared to RGD-targeted nanospheres (after 20 min) is 2.9 fold.
